Consider one molecule from paper PMC4089486 (Acta Crystallographica Section D: Biological Crystallography, 2014).

The experiment addresses Clostridium difficile strain 630 alanine racemase, recombinant wild type (Clostridium difficile strain 630, UniProt A0AC59G415 1-385). Kind of experiment: SEC. The conditions noted are these: both partners purified.

B1: CdAlr cleavage product, amino acids 1-271 (domain or fragment)
chain: MQKITVPTWAEINLDNLRFNLNNIKNLLEEDIKICGVIKADAYGHGAVEVAKLLEKEKVDYLAVARTAEGIELRQNGITLPILNLGYTPDEAFEDSIKNKITMTVYSLETAQKINEIAKSLGEKACVHVKIDSGMTRIGFQPNEESVQEIIELNKLEYIDLEGMFTHFATADEVSKEYTYKQANNYKFMSDKLDEAGVKIAIKHVSNSAAIMDCPDLRLNMVRAGIILYGHYPSDDVFKDRLELRPAMKLKSKIGHIKQVEPGVGISYGLK
For the molecule B1, the binding result is reported as “binds”.
